Where a chain is given by its changes, count along the chain named. In names and notes the source's numbering stands. Where two headings read alike, the source gives them in different places.
Columns and labels:
[1] = target: T1, human C-KIT-Fc (human, UniProt P10721 26-524); test: HTRF epitope competition in solution; unlabelled h37M IgG1-3M titrated against terbium-labelled h37M IgG1 on biotinylated human C-KIT-Fc
T1 construct: also called biotinylated human C-KIT-Fc; not shown: Fc part not described

[2] = target: T2, cynomolgus monkey C-KIT-Fc (cynomolgus monkey); test: HTRF epitope competition in solution; competitor IgG1-3M titrated against terbium-labelled h37M IgG1 on cyno C-KIT-Fc
T2 construct: also called cyno C-KIT-Fc

[3] = target: T3, human C-KIT, full length, on cells (human, UniProt P10721 26-976); test: cell-based or functional assay
[4] = target: T1, human C-KIT-Fc; test: HTRF epitope competition in solution; competitor IgG1-3M titrated against terbium-labelled h37M IgG1 on biotinylated human C-KIT-Fc
[5] = target: cynomolgus monkey C-KIT, full length, on CHO-K1 cells (cynomolgus monkey); test: cell-based or functional assay
[6] = target: T3, human C-KIT, full length, on cells; test: cell-based or functional assay; remark: listed apart in the source
[7] = target: T1, human C-KIT-Fc; test: HTRF competition on human C-KIT-Fc against terbium-labelled h37M IgG1
[8] = target: T3, human C-KIT, full length, on cells; test: flow cytometry, C-KIT-transfected CHO-K1 cells, IgG1 format
[9] = target: T1, human C-KIT-Fc; test: HTRF competition on human C-KIT-Fc against terbium-labelled h37M IgG1; remark: listed apart in the source
[10] = target: T3, human C-KIT, full length, on cells; test: flow cytometry, C-KIT-transfected CHO-K1 cells, IgG1 format; remark: listed apart in the source

B1: h37M-IgG1-3M (antibody, V domains shown)
VH: QVQLVQSGAEVKKPGASVKLSCKASGYTFTDYYINWVRQAPGKGLEWIARIYPGSGNTYYNEKFKGRATLTADKSTSTAYMQLSSLRSEDTAVYFCARGVYYFDYWGQGTTVTVSS
VL: DIVMTQSPSSLSASVGDRVTITCKASQNVRTNVAWYQQKPGKAPKALIYSASYRYSGVPDRFTGSGSGTDFTLTISSLQPEDFADYFCQQYNSYPRTFGGGTKVEIK
notes: human IgG1 with L234A/L235A/G237A; also called C-KIT-h37M
IC50 (read off the curve) [1]: ~0.01 µg/mL

B2: MH1, IgG1-3M format (antibody, V domains shown)
VH: QVQLVQSGAEVKKPGASVKVSCKASGYTFTDYYMNWVRQAPGQGLEWMGRIYPGSGNTYYAQKFQGRVTMTRDTSTSTVYMELSSLRSEDTAVYYCARGVYYYDYWGQGTLVTVSS
VL: DIQMTQSPSSLSASVGDRVTITCRASQGIRTNLAWFQQKPGKAPKSLIYAASSLQSGVPSRFSGSGSGTDFTLTISSLQPEDFATYYCQQYNSYPRTFGGGTKVEIK
notes: human IgG1 with L234A/L235A/G237A; also called C-KIT-MH1
IC50 (read off the curve) [2]: ~0.02 µg/mL | TF-1 proliferation, fold less potent than h37M [3]: 26.5 fold | IC50 (read off the curve) [4]: ~0.01 µg/mL | Cyno C-KIT CHO FabZAP IC50 (pM) [5]: 14 pM | Human C-KIT CHO FabZAP IC50 (pM) [6]: 8.7 pM | TF-1 FabZAP IC50 (pM) [6]: 51.1 pM | TF-1 proliferation IC50 [6]: 2.86 nM

B3: MH7 (antibody, IgG1, V domains shown)
VH: B2 VH
VL: B2 VL with A50S, R96H
notes: IgG1
binding result [7]: binds | binding result [8]: binds

B4: MH3 (antibody, IgG1, V domains shown)
VH: B2 VH
VL: B2 VL with A50S, S93A
notes: IgG1
binding result [9]: binds | binding result [10]: binds

B5: MH5, IgG1-3M format (antibody, V domains shown)
VH: B2 VH
VL: B2 VL with A50S, N92A, S93N
notes: human IgG1 with L234A/L235A/G237A
IC50 (read off the curve) [2]: ~0.02 µg/mL | IC50 (read off the curve) [4]: ~0.03 µg/mL

B6: MH2 (antibody, IgG1, V domains shown)
VH: B2 VH
VL: B2 VL with A50S, N92A
notes: IgG1
binding result [9]: binds | binding result [10]: binds
